B1: Type 3 secretion system translocon protein SctE (Shigella flexneri), P18011 (parent)
chain: MHNVSTTTTGFPLAKILTSTELGDNTIQAANDAANKLFSLTIADLTANQNINTTNAHSTSNILIPELKAPKSLNASSQLTLLIGNLIQILGEKSLTALTNKITAWKSQQQARQQKNLEFSDKINTLLSETEGLTRDYEKQINKLKNADSKIKDLENKINQIQTRLSELDPESPEKKKLSREEIQLTIKKDAAVKDRTLIEQKTLSIHSKLTDKSMQLEKEIDSFSAFSNTASAEQLSTQQKSLTGLASVTQLMATFIQLVGKNNEESLKNDLALFQSLQESRKTEMERKSDEYAAEVRKAEELNRVMGCVGKILGALLTIVSVVAAAFSGGASLALAAVGLALMVTDAIVQAATGNSFMEQALNPIMKAVIEPLIKLLSDAFTKMLEGLGVDSKKAKMIGSILGAIAGALVLVAAVVLVATVGKQAAAKLAENIGKIIGKTLTDLIPKFLKNFSSQLDDLITNAVARLNKFLGAAGDEVISKQIISTHLNQAVLLGESVNSATQAGGSVASAVFQNSASTNLADLTLSKYQVEQLSKYISEAIEKFGQLQEVIADLLASMSNSQANRTDVAKAILQQTTA
B2: Chaperone protein IpgC (Shigella flexneri), P0A2U4 (parent)
chain: MSLNITENESISTAVIDAINSGATLKDINAIPDDMMDDIYSYAYDFYNKGRIEEAEVFFRFLCIYDFYNVDYIMGLAAIYQIKEQFQQAADLYAVAFALGKNDYTPVFHTGQCQLRLKAPLKAKECFELVIQHSNDEKLKIKAQSYLDAIQDIKE
partner: B1 chain

Variants of: B1
Settings: with ipgc_shifl ipgC

Variant | effect of a mutation on the interaction
MHNVSTTTTGFPLAKILTSTELGDNTIQAANDAANKLFSLTIADLTANQNINTTNAHSTSNILIRELKAPKSLNASSQLTLLIGNLIQILGEKSLTALTNKITAWKSQQQARQQKNLEFSDKINTLLSETEGLTRDYEKQINKLKNADSKIKDLENKINQIQTRLSELDPESPEKKKLSREEIQLTIKKDAAVKDRTLIEQKTLSIHSKLTDKSMQLEKEIDSFSAFSNTASAEQLSTQQKSLTGLASVTQLMATFIQLVGKNNEESLKNDLALFQSLQESRKTEMERKSDEYAAEVRKAEELNRVMGCVGKILGALLTIVSVVAAAFSGGASLALAAVGLALMVTDAIVQAATGNSFMEQALNPIMKAVIEPLIKLLSDAFTKMLEGLGVDSKKAKMIGSILGAIAGALVLVAAVVLVATVGKQAAAKLAENIGKIIGKTLTDLIPKFLKNFSSQLDDLITNAVARLNKFLGAAGDEVISKQIISTHLNQAVLLGESVNSATQAGGSVASAVFQNSASTNLADLTLSKYQVEQLSKYISEAIEKFGQLQEVIADLLASMSNSQANRTDVAKAILQQTTA [P65R] | disrupting interaction strength
MHNVSTTTTGFPLAKILTSTELGDNTIQAANDAANKLFSLTIADLTANQNINTTNAHSTSNILIPENKAPKSLNASSQLTLLIGNLIQILGEKSLTALTNKITAWKSQQQARQQKNLEFSDKINTLLSETEGLTRDYEKQINKLKNADSKIKDLENKINQIQTRLSELDPESPEKKKLSREEIQLTIKKDAAVKDRTLIEQKTLSIHSKLTDKSMQLEKEIDSFSAFSNTASAEQLSTQQKSLTGLASVTQLMATFIQLVGKNNEESLKNDLALFQSLQESRKTEMERKSDEYAAEVRKAEELNRVMGCVGKILGALLTIVSVVAAAFSGGASLALAAVGLALMVTDAIVQAATGNSFMEQALNPIMKAVIEPLIKLLSDAFTKMLEGLGVDSKKAKMIGSILGAIAGALVLVAAVVLVATVGKQAAAKLAENIGKIIGKTLTDLIPKFLKNFSSQLDDLITNAVARLNKFLGAAGDEVISKQIISTHLNQAVLLGESVNSATQAGGSVASAVFQNSASTNLADLTLSKYQVEQLSKYISEAIEKFGQLQEVIADLLASMSNSQANRTDVAKAILQQTTA [L67N] | disrupting interaction strength
MHNVSTTTTGFPLAKILTSTELGDNTIQAANDAANKLFSLTIADLTANQNINTTNAHSTSNILIPELAAPKSLNASSQLTLLIGNLIQILGEKSLTALTNKITAWKSQQQARQQKNLEFSDKINTLLSETEGLTRDYEKQINKLKNADSKIKDLENKINQIQTRLSELDPESPEKKKLSREEIQLTIKKDAAVKDRTLIEQKTLSIHSKLTDKSMQLEKEIDSFSAFSNTASAEQLSTQQKSLTGLASVTQLMATFIQLVGKNNEESLKNDLALFQSLQESRKTEMERKSDEYAAEVRKAEELNRVMGCVGKILGALLTIVSVVAAAFSGGASLALAAVGLALMVTDAIVQAATGNSFMEQALNPIMKAVIEPLIKLLSDAFTKMLEGLGVDSKKAKMIGSILGAIAGALVLVAAVVLVATVGKQAAAKLAENIGKIIGKTLTDLIPKFLKNFSSQLDDLITNAVARLNKFLGAAGDEVISKQIISTHLNQAVLLGESVNSATQAGGSVASAVFQNSASTNLADLTLSKYQVEQLSKYISEAIEKFGQLQEVIADLLASMSNSQANRTDVAKAILQQTTA [K68A] | decreasing interaction strength
MHNVSTTTTGFPLAKILTSTELGDNTIQAANDAANKLFSLTIADLTANQNINTTNAHSTSNILIPELKADKSLNASSQLTLLIGNLIQILGEKSLTALTNKITAWKSQQQARQQKNLEFSDKINTLLSETEGLTRDYEKQINKLKNADSKIKDLENKINQIQTRLSELDPESPEKKKLSREEIQLTIKKDAAVKDRTLIEQKTLSIHSKLTDKSMQLEKEIDSFSAFSNTASAEQLSTQQKSLTGLASVTQLMATFIQLVGKNNEESLKNDLALFQSLQESRKTEMERKSDEYAAEVRKAEELNRVMGCVGKILGALLTIVSVVAAAFSGGASLALAAVGLALMVTDAIVQAATGNSFMEQALNPIMKAVIEPLIKLLSDAFTKMLEGLGVDSKKAKMIGSILGAIAGALVLVAAVVLVATVGKQAAAKLAENIGKIIGKTLTDLIPKFLKNFSSQLDDLITNAVARLNKFLGAAGDEVISKQIISTHLNQAVLLGESVNSATQAGGSVASAVFQNSASTNLADLTLSKYQVEQLSKYISEAIEKFGQLQEVIADLLASMSNSQANRTDVAKAILQQTTA [P70D] | disrupting interaction strength

Variants of: B2
Settings: with scte_shifl sctE

Variant | effect of a mutation on the interaction
S41M;Y44G;G75Q;A78M | disrupting interaction strength

Reference: IntAct's records for PubMed 19478065
